Assay results: US20250186594A1 (BRIGHT PEAK THERAPEUTICS, published 2025)
Where a chain is given by its changes, count along the chain named. Names and notes keep the numbering of the source.

T1: IL-18 receptor (IL-18R) on HEK-Blue IL18R reporter cells (UniProt Q13478 19-541; O95256 20-599, limits assumed)
T1 sequence (looked up) 1: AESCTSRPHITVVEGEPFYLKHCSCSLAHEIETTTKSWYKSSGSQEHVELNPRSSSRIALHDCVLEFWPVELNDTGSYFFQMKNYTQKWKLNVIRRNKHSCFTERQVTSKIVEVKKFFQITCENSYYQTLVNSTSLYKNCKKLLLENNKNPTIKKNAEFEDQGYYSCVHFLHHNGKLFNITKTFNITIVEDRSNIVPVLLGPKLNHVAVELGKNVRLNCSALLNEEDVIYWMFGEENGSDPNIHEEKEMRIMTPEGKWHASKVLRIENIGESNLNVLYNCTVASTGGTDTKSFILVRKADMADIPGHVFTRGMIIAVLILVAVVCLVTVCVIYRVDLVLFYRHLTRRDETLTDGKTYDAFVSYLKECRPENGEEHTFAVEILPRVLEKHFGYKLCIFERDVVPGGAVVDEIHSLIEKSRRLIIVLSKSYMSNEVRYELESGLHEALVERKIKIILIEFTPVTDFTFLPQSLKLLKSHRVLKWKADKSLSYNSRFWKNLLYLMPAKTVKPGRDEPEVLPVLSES
T1 sequence (looked up) 2: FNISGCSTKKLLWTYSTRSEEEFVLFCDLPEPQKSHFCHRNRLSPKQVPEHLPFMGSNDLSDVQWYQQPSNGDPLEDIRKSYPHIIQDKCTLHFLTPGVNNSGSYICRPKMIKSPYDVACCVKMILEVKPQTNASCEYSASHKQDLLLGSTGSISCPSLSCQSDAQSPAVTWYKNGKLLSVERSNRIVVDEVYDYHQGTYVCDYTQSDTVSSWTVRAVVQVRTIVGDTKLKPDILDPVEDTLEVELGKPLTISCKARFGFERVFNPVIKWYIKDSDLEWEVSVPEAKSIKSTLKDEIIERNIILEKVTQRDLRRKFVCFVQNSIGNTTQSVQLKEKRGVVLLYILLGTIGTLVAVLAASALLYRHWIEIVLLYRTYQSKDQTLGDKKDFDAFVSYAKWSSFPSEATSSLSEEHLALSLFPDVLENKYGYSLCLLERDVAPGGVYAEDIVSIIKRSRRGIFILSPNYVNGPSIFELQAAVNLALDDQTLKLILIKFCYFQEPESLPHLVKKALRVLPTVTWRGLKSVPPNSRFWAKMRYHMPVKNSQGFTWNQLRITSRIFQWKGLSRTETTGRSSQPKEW

T2: Fc fused human IL-18Rα (human, UniProt Q13478 19-329, limits assumed)
T2 construct: also called IL-18Rα monomer; human IL-18 receptor alpha (CD218a); not shown: Fc
T2 sequence (looked up): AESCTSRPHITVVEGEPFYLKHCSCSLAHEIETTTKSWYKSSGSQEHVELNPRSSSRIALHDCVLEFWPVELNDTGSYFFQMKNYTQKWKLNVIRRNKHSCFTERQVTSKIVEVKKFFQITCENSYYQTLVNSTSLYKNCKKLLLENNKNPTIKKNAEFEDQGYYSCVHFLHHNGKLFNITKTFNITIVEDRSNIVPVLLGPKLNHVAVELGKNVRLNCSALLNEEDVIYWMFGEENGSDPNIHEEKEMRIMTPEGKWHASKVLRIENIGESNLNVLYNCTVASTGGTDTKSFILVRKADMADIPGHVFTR

T3: IL-18Rα/β heterodimer (Fc fused human IL-18Rα mixed with Fc fused human IL-18Rβ) (human, UniProt Q13478 19-329; O95256 20-356, limits assumed)
T3 construct: Alpha and beta Fc fusions were mixed and pre-incubated for 30 min before capture on anti-human IgG; also called alpha/beta heterodimer IL-18 receptor; heterodimeric human IL-18 receptor alpha (CD218a) and IL-18R accessory protein (IL-18RAP/CDw218b); not shown: Fc
T3 sequence (looked up) 1: T2 sequence (looked up)
T3 sequence (looked up) 2: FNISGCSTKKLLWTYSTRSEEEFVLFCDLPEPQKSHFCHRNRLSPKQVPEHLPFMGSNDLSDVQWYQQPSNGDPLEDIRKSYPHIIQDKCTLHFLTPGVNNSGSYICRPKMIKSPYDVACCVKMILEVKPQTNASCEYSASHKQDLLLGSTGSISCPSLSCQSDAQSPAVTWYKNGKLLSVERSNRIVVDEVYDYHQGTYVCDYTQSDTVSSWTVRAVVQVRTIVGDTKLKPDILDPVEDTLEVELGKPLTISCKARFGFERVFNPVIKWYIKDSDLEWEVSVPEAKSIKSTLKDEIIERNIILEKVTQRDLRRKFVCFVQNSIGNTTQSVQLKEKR

B1: IL-18 variant SEQ ID NO: 242 (N-terminal G, E6K, V11I, C38A, K53A, T63A, C76A, C127A) (ligand)
chain: GYFGKLKSKLSIIRNLNDQVLFIDQGNRPLFEDMTDSDARDNAPRTIFIISMYADSQPRGMAVAISVKCEKISTLSAENKIISFKEMNPPDNIKDTKSDIIFFQRSVPGHDNKMQFESSSYEGYFLAAEKERDLFKLILKKEDELGDRSIMFTVQNED
B2: IL-18 variant SEQ ID NO: 244 (N-terminal G, E6K, V11I, C38A, M51G, K53A, T63A, C76A, C127A) (ligand)
chain: B1 chain with M52G
B3: IL-18 variant SEQ ID NO: 30 (E6K, V11I, C38A, K53A, T63A, C76A, C127A) (ligand)
chain: YFGKLKSKLSIIRNLNDQVLFIDQGNRPLFEDMTDSDARDNAPRTIFIISMYADSQPRGMAVAISVKCEKISTLSAENKIISFKEMNPPDNIKDTKSDIIFFQRSVPGHDNKMQFESSSYEGYFLAAEKERDLFKLILKKEDELGDRSIMFTVQNED
B4: IL-18 variant SEQ ID NO: 207 (V11I, C38A, M51G, K53A, C76A, C127A) (ligand)
chain: B3 chain with K6E, M51G, A63T
B5: IL-18 variant SEQ ID NO: 239 (E6K, V11I, C38A, M51G, K53A, T63A, C76A, C127A) (ligand)
chain: B3 chain with M51G
B6: IL-18 variant SEQ ID NO: 59 (E6K, C38A, K53A) (ligand)
chain: B3 chain with I11V, A63T, A76C, A127C
B7: IL-18 variant SEQ ID NO: 241 (N-terminal 4xG, E6K, V11I, C38A, K53A, T63A, C76A, C127A) (ligand)
chain: GGGGYFGKLKSKLSIIRNLNDQVLFIDQGNRPLFEDMTDSDARDNAPRTIFIISMYADSQPRGMAVAISVKCEKISTLSAENKIISFKEMNPPDNIKDTKSDIIFFQRSVPGHDNKMQFESSSYEGYFLAAEKERDLFKLILKKEDELGDRSIMFTVQNED
B8: IL-18 variant SEQ ID NO: 61 (E6K, C38A, K53A, C76A) (ligand)
chain: B3 chain with I11V, A63T, A127C
B9: IL-18 variant SEQ ID NO: 63 (E6K, C38A, K53A, C76A, C127A) (ligand)
chain: B3 chain with I11V, A63T
B10: IL-18 variant SEQ ID NO: 62 (E6K, C38A, K53A, C127A) (ligand)
chain: B3 chain with I11V, A63T, A76C

These binders were tested against T1, IL-18 receptor (IL-18R) on HEK-Blue … (assay: cell-based or functional assay).

Going from B1 to B2, the “EC50 (read off the curve); SEAP reporter in HEK-Blue IL18R cells (OD 620 nM)” value (“EC50 (read off the curve); SEAP reporter” below) rises from ~2 pM to ~10 pM (5-fold).

First: B3
Second: B4
The “EC50 (read off the curve); SEAP reporter” value of the first is 80-fold lower: ~0.05 pM for the first, ~4 pM for the second.

First: B5
Second: B6
The “EC50 (read off the curve); SEAP reporter” value of the first is 3-fold lower: ~0.1 pM for the first, ~0.3 pM for the second.

With B7 the “EC50 (read off the curve); SEAP reporter” value was ~3 pM.

Biological target: T1, IL-18 receptor (IL-18R) on HEK-Blue …
Experiment: cell-based or functional assay
Remark: another data set of the same source

Compared with B1, B2 is 8.3-fold higher in “EC50, HEK-Blue IL18R reporter” value: 1.68 nM for the first, 14 nM for the second.

Going from B3 to B4, the “EC50, HEK-Blue IL18R reporter” value rises from 0.053 nM to 0.8 nM (15-fold).

B5 and B8 are within 1.5-fold of each other in “EC50, HEK-Blue IL18R reporter” value: 0.1 nM for the first, 0.084 nM for the second.

Going from B6 to B9, the “EC50, HEK-Blue IL18R reporter” value falls from 0.268 nM to 0.0139 nM (19-fold).

First: B10
Second: B7
The “EC50, HEK-Blue IL18R reporter” value of the first is 15-fold lower: 0.17 nM for the first, 2.5 nM for the second.

What follows are binders tested against T2, Fc fused human IL-18Rα (assay: SPR, Fc-IL-18Rα captured, 1:1 fit).
Procedure: (§1) The interaction of the wild type and of modified IL-18 polypeptides with human IL-18 receptor subunits are measured with Surface Plasmon Resonance (SPR) technology. Anti-human IgG antibodies are bound by amine coupling onto a CM5 chip to capture 6 µg/mL of Fc fused human IL-18Rα, […] of Fc fused human IL-18Rβ, or […] of Fc fused human IL-18BP isoform a (IL-18BPa) for 30 min before capture. In other settings, […] of alpha and beta IL-18 receptors are mixed and pre-incubated for 30 min before capture of the alpha/beta heterodimer IL-18 receptor.
(§2) The kinetic binding of the IL-18 analytes are measured with a Biacore 8K instrument in two fold serial dilutions starting at […] down to 0.98 nM. Regeneration of the surface back to amine coupled anti IgG antibody is done after every concentration of analyte. To measure the protein association to the receptors, the samples are injected with a flow rate of […] for 60 s, followed by 300 s buffer only to detect the dissociation. The used running buffer is 1×PBS with 0.05% Tween20. The relative response units (RU, Y-axis) are plotted against time (s, X-axis) and analyzed in a kinetic 1:1 binding model for the monomer receptor binding and for the binding to the IL-18BP. A kinetic heterogenous ligand fit model is applied for the alpha/beta heterodimer binding.

B3 and B8 are within 1.5-fold of each other in Kd: 30.3 nM for the first, 30.4 nM for the second.

Going from B6 to B9, the Kd rises from 17.8 nM to 42.2 nM (2.4-fold). The first binds more tightly here.

Work on B10 yielded a Kd of 63.9 nM.

B3 and B8 are within 1.5-fold of each other in koff: 0.0536 s⁻¹ for the first, 0.0674 s⁻¹ for the second.

First: B6
Second: B9
The koff of the first is 59-fold lower: 0.0165 s⁻¹ for the first, 0.976 s⁻¹ for the second.

B10 was tested, and the koff was 0.0424 s⁻¹.

B3 and B8 are within 1.5-fold of each other in kon: 1.77e+06 M⁻¹ s⁻¹ for the first, 2.22e+06 M⁻¹ s⁻¹ for the second.

Going from B6 to B9, the kon rises from 1.77e+06 M⁻¹ s⁻¹ to 2.31e+07 M⁻¹ s⁻¹ (13-fold).

Work on B10 yielded a kon of 664000 M⁻¹ s⁻¹.

What follows are binders tested against T3, IL-18Rα/β heterodimer (Fc fused human …) (assay: SPR, Fc-IL-18Rα/β captured, heterogeneous ligand fit).
Procedure: as §1, §2

First: B3
Second: B8
The Kd of the first is 2.1-fold lower: 0.49 nM for the first, 1.01 nM for the second. The first binds more tightly here.

Going from B6 to B9, the Kd falls from 0.66 nM to 0.41 nM (1.6-fold).

In the case of B10, the Kd is reported as 1.24 nM.

First: B3
Second: B8
The koff of the first is 3.5-fold lower: 0.000311 s⁻¹ for the first, 0.0011 s⁻¹ for the second.

Going from B6 to B9, the koff falls from 0.000815 s⁻¹ to 0.000467 s⁻¹ (1.7-fold).

B10 gave a koff of 0.00149 s⁻¹.

B3 and B8 are within 1.5-fold of each other in kon: 866000 M⁻¹ s⁻¹ for the first, 1.09e+06 M⁻¹ s⁻¹ for the second.

B6 and B9 are within 1.5-fold of each other in kon: 1.24e+06 M⁻¹ s⁻¹ for the first, 1.15e+06 M⁻¹ s⁻¹ for the second.

B10 was tested, and the kon was 1.21e+06 M⁻¹ s⁻¹.
